The source of these data is FireProtDB (doi:10.1002/pro.5560041207).

Sequences and labels used below:
B1: Thioredoxin, P08058 (parent)
chain: MSTVPVTDATFDTEVRKSDVPVVVDFWAEWCGPCRQIGPALEELSKEYAGKVKIVKVNVDENPESPAMLGVRGIPALFLFKNGQVVSNKVGAAPKAALATWIASAL

The variants in the data set derive from B1. The conditions noted are these: Cereibacter sphaeroides, pH 7.4, 23 °C, Urea, Fluorescence, whole UniProt chain shown.

MSTVPVTDATFDTEVRKSDVPVVVDVWAEWCGPCRQIGPALEELSKEYAGKVKIVKVNVDENPESPAMLGVRGIPALFLFKNGQVVSNKVGAAPKAALATWIASAL: where the note is “Potassium phosphate 20 mM”, the “ddG of mutation (higher = less stable)” value came out at 4.8 kcal/mol and the unfolding free energy came to 3.4 kcal/mol. Besides, the unfolding free energy (Potassium phosphate 20mM) was found to be 3.35 kcal/mol.
For MSTVPVTDATFDTEVRKSDVPVVVDLWAEWCGPCRQIGPALEELSKEYAGKVKIVKVNVDENPESPAMLGVRGIPALFLFKNGQVVSNKVGAAPKAALATWIASAL, the “ddG of mutation (higher = less stable)” value (Potassium phosphate 20 mM) worked out at 3.4 kcal/mol. The unfolding free energy reads like this: (Potassium phosphate 20 mM) 4.8 kcal/mol; (Potassium phosphate 20mM) 4.78 kcal/mol.
Turning to MSTVPVTDATFDTEVRKSDVPVVVDIWAEWCGPCRQIGPALEELSKEYAGKVKIVKVNVDENPESPAMLGVRGIPALFLFKNGQVVSNKVGAAPKAALATWIASAL, under “Potassium phosphate 20mM”, the unfolding free energy came to 4.3 kcal/mol.
Same read-out and setting: with MSTVPVTDATFDTEVRKSDVPVVVDYWAEWCGPCRQIGPALEELSKEYAGKVKIVKVNVDENPESPAMLGVRGIPALFLFKNGQVVSNKVGAAPKAALATWIASAL the figure was 7.89 kcal/mol.
